The values below come from patent publication US20240299576A1, “TARGETING […] MOLECULES AND USES THEREOF” (priority 2021, published 2024).

Series [1] can be described thus: Stability of SN-38 (lactone / lactone ring opening vs pH). Format: physicochemical. Here is the method:
A hydrochloric acid solution with a pH of 4 and a sodium hydroxide solution with a pH of 10 were prepared respectively. 5 mg of SN-38 was dissolved in 5 mL of acetonitrile. The stability of SN-38 in a solution of changing pH (pH=10 to pH=4) was measured by shaking SN-38 at room temperature under pH=10 for 10 min, then adjusting the pH back to 4 and shake at room temperature for 10 min before sampling. SN-38 was then incubated at room temperature overnight (16 h) on a shaker and assayed afterwards.

The test system of a further series is HCT15-hPDL1 cells. Description: cells. The series is classed as cell-based, human. The note with it: 5 days exposure, read-out: HCT15-hPDL1 cell IC50. Here is the method:
The cell line was named as HCT15-hPDL1.
(§1) The in vitro anti-tumor activity was determined by CellTiter-Glo® Luminescent Cell Viability Assay (Promega) according to the manufacturer's instructions. […] Untreated cells served as control. ADCs, antibodies, or payloads in 100 μL medium were added in duplicate at various concentrations with a 2-fold dilution series starting with concentrations of 1 uM, respectively. Cells were exposed to test articles for 5 days. Absorbance was measured at 450 nm by a microplate reader. The cell survival rate (%) was calculated using the following formula: sample/control×100%.

The subject of another series is PC3-hPDL1-hTROP2 cells. Briefly: cells. Format: cell-based, human. The note with it: 5 days exposure, read-out: PC3-hPDL1-hTROP2 cell IC50. The procedure: as §1
The subject of another series is HCT15-hPDL1-hTROP2 cells. Description: In vitro cytotoxicity, HCT15-hPDL1-hTROP2 cells. The series is classed as cell-based, human. The procedure: The cell line was named as HCT15-hPDL1-hTROP2.
as §1

Another series has as its target CathepsinB (Homo sapiens, UniProt P07858). Briefly: Digestion of the drug-linkers by CathepsinB. The note with it: 125 nM enzyme, 62.5 μM drug-linker, pH 5.5, 37° C., 3 hours.
The subject of series [2] is T1, uPA substrate peptide SEQ ID NO: 50.
T1 sequence: LSGRSDNH

In series [3] the test system is T2, uPA substrate peptide SEQ ID NO: 51.
T2 sequence: SGRSA

The test system of series [4] is T3, uPA substrate peptide SEQ ID NO: 52.
T3 sequence: LGGSGRSANAILE

Series [5] concerns T4, uPA substrate peptide SEQ ID NO: 53.
T4 sequence: LGGSGRNAQVRLE

The test system of series [6] is T5, uPA substrate peptide SEQ ID NO: 54.
T5 sequence: GSGRNAQV

Setting [7] is: alkaline conditions 10 minutes, then acidic conditions (pH 10→4) before testing.
[8] abbreviates: pH 10→4, after incubation overnight (16 h).

pIC50: −log10 of the molar value. Read-outs that look alike come from different tables or passages of the source. Some results are limits rather than exact numbers.

Sequence of Tissue-type Plasminogen Activator (tPA) (P00750 36-562): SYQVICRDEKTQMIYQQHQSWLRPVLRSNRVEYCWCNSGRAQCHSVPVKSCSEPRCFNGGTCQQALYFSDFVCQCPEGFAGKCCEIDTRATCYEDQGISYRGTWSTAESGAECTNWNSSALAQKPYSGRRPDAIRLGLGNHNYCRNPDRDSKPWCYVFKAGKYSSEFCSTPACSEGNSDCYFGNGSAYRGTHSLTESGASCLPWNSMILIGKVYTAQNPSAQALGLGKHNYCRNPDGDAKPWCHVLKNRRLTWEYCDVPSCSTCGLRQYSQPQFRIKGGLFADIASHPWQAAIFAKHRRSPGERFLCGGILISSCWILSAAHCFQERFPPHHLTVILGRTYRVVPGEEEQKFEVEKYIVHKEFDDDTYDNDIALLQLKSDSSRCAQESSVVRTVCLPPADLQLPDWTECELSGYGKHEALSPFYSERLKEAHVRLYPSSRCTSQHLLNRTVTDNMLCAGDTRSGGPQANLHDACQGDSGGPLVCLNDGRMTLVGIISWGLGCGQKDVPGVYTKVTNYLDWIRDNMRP
Method for CathepsinB: To simulate the release of drug under physiological conditions, the drug-linkers were subjected to cleavage by CathepsinB, after which an elimination reaction occurred and unmodified drug was released.
Lyophilized CathepsinB enzyme powder was dissolved in 130 μL of pure water, and divided into 13 tubes of 10 μL each. […] Activation buffer (20 mM sodium acetate, 30 mM DTT, 15 mM EDTA, pH 5.5) was then added to a tube of enzyme to activate the enzyme for 1 hour at room temperature.

Turning to `CCc1c2c(nc3ccc(O)cc13)-c1cc3c(c(=O)n1C2)COC(=O)[C@]3(O)CC` [SN38, 7-ethyl-10-hydroxy-20(S)-camptothecin], the existing as lactone in [1] (acidic conditions (pH 4)) is listed as 94%. Besides, the results for the lactone ring-opening products in series [1] (setting [7]) and in [1] (setting [8]) were 42% and 13%, respectively. The “present in the form of lactone” value in series [1] (setting [7]) is 56%. For the same compound, the lactone ring-opened form in series [1] (alkaline conditions (pH 10)) is recorded as 92%. Also, the “in the form of lactone” value in [1] (setting [8]) was determined as 86%. Moreover, the negative-log IC50 (pIC50) was 7.95 in the series on HCT15-hPDL1 cells (Homo sapiens, 120 h); 8.06 in the series with PC3-hPDL1-hTROP2 cells (Homo sapiens, 120 h); 8.02 with HCT15-hPDL1-hTROP2 cells (Homo sapiens, 120 h, 5 days exposure, read-out: HCT15-hPDL1-hTROP2 cell IC50). For the same compound, the “Maximum Inhibitory Rate” value in the series on HCT15-hPDL1-hTROP2 cells (HCT15-hPDL1-hTROP2 cells) is more than 99.9%.

For the compound “Glycine3-amido-PEG8-VC-PAB-DMAE-phenol linked SN38 [Compound of Formula (1)]”, the pIC50 in the series on PC3-hPDL1-hTROP2 cells was less than 6.60. For the same compound, the “Product released on CathepsinB digestion” value at CathepsinB was “SN38”.

Consider “Glycine3-amido-PEG8-VC-PAB-DMAE-α-hydroxy lactone linked SN38 [Compound of Formula (2)]”, for which the pIC50 in the series on HCT15-hPDL1 cells is 7.42. Also, in the series on PC3-hPDL1-hTROP2 cells, the pIC50 is 7.27. Also, at CathepsinB, the “CathepsinB digestion” value was “effectively digested” and the “Product released on CathepsinB digestion” value is “SN38 derivatives”.

Regarding Tissue-type Plasminogen Activator (tPA), the Fluorescence Intensity, Fold of Increase, tPA digestion at 2.25 × 10^-2 mg/mL (FRET) in series [2] turned out to be 1.1 fold; in series [3], 5.4 fold; in [4] it was 2.1 fold; in series [5], 1.3 fold; in series [6], 2.6 fold. The Fluorescence Intensity, Fold of Increase, tPA digestion at 7.5 × 10^-3 mg/mL (FRET) in [2] amounted to 0.63 fold; in series [3] it was 2.1 fold; in series [4] it was 1.2 fold; in [5], 0.73 fold; in series [6] it was 0.91 fold.

Take “Urokinase-type Plasminogen Activator (uPA)”: the Fluorescence Intensity, Fold of Increase, uPA cleavage (FRET) in series [2] turned out to be 4.9 fold; in [3] it was 9.6 fold; in series [4] it was 3.1 fold; in [5] it was 3 fold; in [6], 4.7 fold. Further, the Fluorescence Intensity, Time to Reach Plateau (h), uPA cleavage (FRET) in series [2] is 1.7 h; in series [3], 1.8 h; in [4], 1.4 h; in series [5], 1.6 h; in series [6] it was 1.4 h.
